The target of the first data set is substrate IV, H-Lys-Ala-Arg-Val-Nle-Phe(p-NO2)-Glu-Ala-Nle-NH2 (HIV).
Assay: not given
Take “[Ala^38, SPro^39, Abu^67,95]-HIV-1 PR (enzyme)”: the kcat/Km, hydrolysis of substrate IV is 98400 M^-1, S^-1.
Same read-out and setting: under “[Leu-NHCH2-Thz^38-39, Abu^67,95]-HIV-1 PR (enzyme)” stands 36300 M^-1, S^-1; under [SPro^39, Abu^67,95]-HIV-1 PR (enzyme), 119000 M^-1, S^-1.
Same read-out and setting: under recombinant HIV-1 PR (enzyme) stands 121000 M^-1, S^-1.

The test system of the next data set is substrate IV, H-Lys-Ala-Arg-Val-Nle-Phe(p-NO2)-Glu-Ala-Nle-NH2. Nature of the data set: steady-state kinetics of substrate IV hydrolysis at 22° C., RP HPLC; the filing calls Km the binding affinity.
For the substance [Ala^38, SPro^39, Abu^67,95]-HIV-1 PR, the Km (in general, the concentration of substrate that gives half-maximal velocity) was 8.2 µM.
Still for that read-out and setting: under “[Leu-NHCH2-Thz^38-39, Abu^67,95]-HIV-1 PR” stands 11.4 µM; under [SPro^39, Abu^67,95]-HIV-1 PR, 11.9 µM; under recombinant HIV-1 PR, 10.1 µM.

For the origin of these results see patent US6310180.
